Entries after “also recorded” stand apart in the source; their conditions may differ.
Columns and labels:
[1] = test system: MCA205 mouse tumor cells (sarcoma); assay: In vivo combination treatment, MCA205 tumors in human CD39 KI mice; conditions: second experimental series: oxaliplatin injected twice, one week apart, one day after I-394
Description: 1×10^6 MCA205 mouse tumor cells (sarcoma) were subcutaneously engrafted in the right flank of mice genetically modified to express human CD39 (CD39KI mice). […] Tumors were measured twice a week with a caliper (L: length and w: width) and tumor volume was calculated with the formula (L×w2)/2. Mice were sacrificed when tumor volume was above 1800 mm^3 or when tumors were highly necrosed. The human CD39 KI mice were engrafted with MCA205 tumor cells at day 0.
In a first experimental series, mice were treated at day 5 post tumor cell engraftment with either control (1 group) PBS, or oxaliplatin chemotherapy (2 groups). In parallel, one group of mice treated with oxaliplatin was injected twice a week with anti-CD39 antibody, with the anti-CD39 antibody treatment starting just one day before oxaliplatin treatment (at day 4).

[2] = biological target: T1, Human CD39-L4, also known as NTPDase5 or ENTPD5 (Homo sapiens, UniProt O75356); assay: ELISA titration on CD39-L4; format: binding; conditions: coated recombinant protein, OD=450
T1 sequence (O75356 25-428): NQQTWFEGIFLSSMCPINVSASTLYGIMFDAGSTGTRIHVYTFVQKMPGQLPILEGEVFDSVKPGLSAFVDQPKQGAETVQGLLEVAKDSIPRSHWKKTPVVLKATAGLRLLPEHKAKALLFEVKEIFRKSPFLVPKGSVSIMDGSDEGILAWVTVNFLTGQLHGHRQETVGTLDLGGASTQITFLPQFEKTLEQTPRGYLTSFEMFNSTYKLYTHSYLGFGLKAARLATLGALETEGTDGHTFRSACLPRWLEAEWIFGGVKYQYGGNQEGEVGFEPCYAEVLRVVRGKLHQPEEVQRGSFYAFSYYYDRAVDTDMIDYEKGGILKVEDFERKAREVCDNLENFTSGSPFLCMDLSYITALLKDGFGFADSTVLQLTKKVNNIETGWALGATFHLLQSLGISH
Description: (§1) Wells were washed in TBS Tween 20, and further saturated 2H at RT in TBS Blocking buffer. Dose range concentration of primary antibody was incubated in TBS blocking buffer for 2 h at RT. Wells were washed in TBS Tween 20. […] Optical density was measured on Enspire™ at OD=450.

[3] = biological target: T2, Human CD39-L1, also known as NTPDase2 or ENTPD2 (Homo sapiens, UniProt Q9Y5L3); assay: ELISA titration on CD39-L1; format: binding; conditions: coated recombinant protein, OD=450
T2 sequence (Q9Y5L3 1-472 isoform Q9Y5L3-2): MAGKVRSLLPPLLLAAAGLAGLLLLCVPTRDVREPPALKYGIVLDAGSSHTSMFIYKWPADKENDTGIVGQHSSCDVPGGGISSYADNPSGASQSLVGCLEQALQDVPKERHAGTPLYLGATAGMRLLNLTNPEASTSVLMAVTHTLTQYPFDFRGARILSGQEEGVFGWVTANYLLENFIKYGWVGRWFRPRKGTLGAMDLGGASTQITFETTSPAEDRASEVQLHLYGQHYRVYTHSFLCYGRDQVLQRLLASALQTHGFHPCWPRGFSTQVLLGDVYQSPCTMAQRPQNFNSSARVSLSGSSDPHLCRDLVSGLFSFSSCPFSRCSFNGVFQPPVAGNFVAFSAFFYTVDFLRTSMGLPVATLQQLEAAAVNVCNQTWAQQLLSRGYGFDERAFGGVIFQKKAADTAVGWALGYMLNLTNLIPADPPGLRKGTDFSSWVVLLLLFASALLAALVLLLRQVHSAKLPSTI
Description: as §1

cell-membrane bound CD39 = biological target: T3, cell-membrane bound CD39 (Homo sapiens, UniProt P49961); assay: Inhibition of the enzymatic activity of cellular CD39 (cells not specified); format: cell-based
T3 sequence (P49961 1-510): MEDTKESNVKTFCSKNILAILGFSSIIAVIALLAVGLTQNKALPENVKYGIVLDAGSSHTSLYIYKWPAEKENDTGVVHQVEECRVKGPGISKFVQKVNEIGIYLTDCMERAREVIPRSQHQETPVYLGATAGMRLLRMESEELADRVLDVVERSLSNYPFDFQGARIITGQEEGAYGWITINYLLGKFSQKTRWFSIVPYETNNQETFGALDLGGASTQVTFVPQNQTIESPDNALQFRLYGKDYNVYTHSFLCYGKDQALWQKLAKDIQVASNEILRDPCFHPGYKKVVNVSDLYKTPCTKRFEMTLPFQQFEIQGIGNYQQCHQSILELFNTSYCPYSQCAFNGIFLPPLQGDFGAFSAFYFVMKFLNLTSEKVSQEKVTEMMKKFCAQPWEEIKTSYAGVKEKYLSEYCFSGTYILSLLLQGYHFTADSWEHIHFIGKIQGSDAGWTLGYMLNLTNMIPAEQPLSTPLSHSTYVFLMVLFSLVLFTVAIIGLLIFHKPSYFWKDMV
Description: The inhibition of the CD39 enzymatic activity in CD39-expressing cells by antibodies was evaluated using Cell Titer Glo™ (Promega, reference G7571) that allows assessment of ATP hydrolysis through use of a reagent that generates a luminescent signal proportional to the amount of ATP present. The assay was thus designed to permit assessment of the inhibition of ATP hydrolyzed by CD39 in the cell culture supernatant. Briefly, 5×10^4 Ramos human lymphoma cells, 5×10^3 human CD39-, cynomolgus CD39- and mouse CD39-expressing CHO cells, were incubated 1 hour at 37° C. with anti-CD39 antibodies from 30 μg/ml to 5×10^−4 μg/ml. Cells were then incubated with 20 μM ATP for 1 additional hour at 37° C. Plates were centrifuged for 2 min at 400 g and 50 μl cell supernatant are transferred in a luminescence microplate (white wells). 50 μl CellTiter-Glo® Reagent (CTG) was added to the supernatant and emitted light was quantified after a 5 min incubation in the dark using a Enspire™ luminometer. Anti-CD39 antibody efficacy was determined by comparing emitted light in presence of antibody with ATP alone (maximal light emission) and ATP together with cells (minimal light emission). […]

human CD39 = biological target: T4, human CD39 (Homo sapiens, UniProt P49961); assay: ELISA titration on human CD39; format: binding; conditions: coated recombinant protein, OD=450
T4 sequence (P49961 1-510): T3 sequence (P49961 1-510)
Description: as §1

allogenic CD4 T cells = assay: Mixed lymphocytes reaction (MLR) of ATP-activated DC with allogenic CD4 T cells; format: cell-based, human; conditions: ATP-activated MoDC, 1 MoDC/4 T cells, 5 days
Description: T cells activation and proliferation were analyzed through CD25 expression and Cell Trace Violet dilution by flow cytometry.
Briefly, human monocytes were purified from human healthy blood and differentiated into MoDC in presence of GM-CSF and IL-4 during 6 days. Then MoDC were activated in presence of ATP (Sigma, 0.25-1 mM) during 24 hours and DC activation were assessed by analyzing CD80, CD83 and HLA-DR expression by flow cytometry. […] LPS (Invivogen, 10 ng/ml) was used as positive control. To assess resulting effect of ATP-mediated DC activation on CD4 T cells activation, ATP-activated DC were washed and then incubated with allogenic CD4 T cells (ratio 1 MoDC/4 T cells) for a mixed lymphocytes reaction (MLR) during 5 days. T cells activation and proliferation were analyzed through CD25 expression and Cell Trace Violet dilution by flow cytometry (FIG. 8).

B1: I-394: anti-CD39 antibody, VH SEQ ID NO: 3, VL SEQ ID NO: 4; heavy and light chains SEQ ID NOS: 37 and 38 (antibody)
heavy: EVQLQQSGPELVKPGASVKMSCKASGYTFTDYNMHWVKQSHGRTLEWIGYIVPLNGGSTFNQKFKGRATLTVNTSSRTAYMELRSLTSEDSAAYYCARGGTRFAYWGQGTLVTVSAASTKGPSVFPLAPSSKSTSGGTAALGCLVKDYFPEPVTVSWNSGALTSGVHTFPAVLQSSGLYSLSSVVTVPSSSLGTQTYICNVNHKPSNTKVDKRVEPKSCDKTHTCPPCPAPEAEGAPSVFLFPPKPKDTLMISRTPEVTCVVVDVSHEDPEVKFNWYVDGVEVHNAKTKPREEQYNSTYRVVSVLTVLHQDWLNGKEYKCKVSNKALPSSIEKTISKAKGQPREPQVYTLPPSREEMTKNQVSLTCLVKGFYPSDIAVEWESNGQPENNYKTTPPVLDSDGSFFLYSKLTVDKSRWQQGNVFSCSVMHEALHNHYTQKSLSLSPGK
light: DIVLTQSPASLAVSLGQRATISCRASESVDNFGVSFMYWFQQKPGQPPNLLIYGASNQGSGVPARFRGSGSGTDFSLNIHPMEADDTAMYFCQQTKEVPYTFGGGTKLEIKRTVAAPSVFIFPPSDEQLKSGTASVVCLLNNFYPREAKVQWKVDNALQSGNSQESVTEQDSKDSTYSLSSTLTLSKADYEKHKVYACEVTHQGLSSPVTKSFNRGEC
modifications: Chimeric homo sapiens mus musculus
Question: What does the source list for B1?
Answer: effect on tumor growth / tumor volume and mice survival [1]: only marginal effect; binding to CD39-L4 in ELISA [2]: not to any of the human isoforms; binding to CD39-L1 in ELISA [3]: not to any of the human isoforms; potency and maximal inhibition of cellular CD39, comparison between antibodies (FIG. 2A) (cell-membrane bound CD39; compared with BY40): greater potency and maximal inhibition of cellular CD39 compared to BY40; also recorded: greater potency at all concentrations as well as greater maximal inhibition of cellular CD39 compared to BY40; inhibition of cell-membrane bound (cellular) CD39 ATPase activity (cell-membrane bound CD39; result in words): inhibit cell-membrane bound CD39; binding to human CD39 in ELISA (human CD39): bound; also recorded: binds to human CD39; T cell proliferation and activation (CD25 expression, Cell Trace Violet dilution) in MLR (allogenic CD4 T cells): higher T cell proliferation and activation
